Laboratory results: patent publication US9150634B2, “Epitopes of the human PDGF receptor able to bind human auto-antibodies, antibodies and uses thereof” (priority 2010, dated 2015)
Blank lines part the entries; values can stand above or below the molecule they belong to.

How the values were obtained:
normal human fibroblasts [1] = experiment: type I collagen gene transcription in normal human fibroblasts (real-time PCR); type: cell-based; conditions: time course
Text: (§1) FIG. 5 Characterization of recombinant human monoclonal auto-antibodies (rHumaab). IgG were affinity-purified from serum-free supernatants of CHO cells stably transfected with each of the four rHumaab constructs and used (10 micrograms/ml) in four independent assays. Each result is representative of three experiments performed under the same conditions. (a) Vk13B8, Vk16F4 and Vlambda16F4, but not Vlambda13B8 rHumaab, immunoprecipitated PDGFR alpha from normal human fibroblast extracts. A mouse monoclonal anti-PDGFR alpha antibody was used as positive control. Immunoprecipitated PDGFR alpha was visualized by immunoblotting with rabbit anti-PDGFR alpha antibody-HRP. (b-c) Vk16F4 and Vlambda16F4, but not Vk13B8 and Vlambda13B8 rHumaab, induced (b) ROS production and (c) increased ERK phosphorylation (p-ERK) in normal human fibroblasts after 15 minutes incubation. […] Intracellular ROS production was measured by DCFH-DA fluorescence. […] Type I A1 and A2 collagen gene expression was measured by quantitative real-time PCR in RNA extracted from fibroblasts at baseline and after stimulation with the indicated reagents. […] Mouse collagen gene expression was measured by quantitative real-time PCR in RNA extracted from F alpha and F−/− fibroblasts at baseline and after 1 hour stimulation with Vk16F4 rHumaab or human PDGF-BB. […]

PDGFR alpha [2] = target: T1, PDGFR alpha (Homo sapiens, UniProt P16234); experiment: optical biosensor binding to immobilized His-tagged PDGFR alpha; parameters: cDNA encoding aminoacids 1-834 of human PDGFR alpha; made in house
Method: A detailed characterization of rHumaab interaction with human PDGFR alpha was performed on an optical biosensor, using as a molecular bait a homemade truncated conformer of this receptor containing the complete extracellular and transmembrane regions joined to a poly-histidine tail (HIS tag) replacing part of the intracellular domain, and serving both as an anchor to the biosensor surface and as a spacer. Preservation of proper folding of the immobilized receptor into a naïve-like conformation was verified by monitoring the interaction with its natural binding partner (PDGF-BB) and with two mouse monoclonal antibodies specific for conformational PDGFR alpha epitopes (FIG. 6a). Using this approach, both kinetics and equilibrium parameters of the interaction between PDGF-BB, each rHumaab and PDGFR alpha were determined. […] Additionally, the analysis of association and dissociation rate constants for soluble ligands binding to PDGFR alpha, further defined the mechanistic properties of the macromolecular recognition process. […]
cDNA encoding aminoacids 1-834 of human PDGFR alpha was inserted in the pcDNA V5 HIS A vector (Invitrogen), in order to fuse the COOH— terminal of the protein with a 6× histidine tag. […] Presence of a single His-tagged PDGFR alpha product in eluted fractions was evaluated by immunoblotting with specific anti-PDGFR alpha (R&D Biosystems) and anti-histidine (Sigma-Aldrich) monoclonal antibodies. […]
[…] For binding assays, monophasic time courses were always reported upon addition of soluble rHumaab (the validity of the monophasic model in fitting each time course was assessed according to a standard F-test procedure, with the biphasic model being statistically nonsignificant at 95% confidence) (Bevington P R and Robinson D K. McGraw-Hill Book Company, New York. 1992).
Target sequence in this assay (P16234 24-834): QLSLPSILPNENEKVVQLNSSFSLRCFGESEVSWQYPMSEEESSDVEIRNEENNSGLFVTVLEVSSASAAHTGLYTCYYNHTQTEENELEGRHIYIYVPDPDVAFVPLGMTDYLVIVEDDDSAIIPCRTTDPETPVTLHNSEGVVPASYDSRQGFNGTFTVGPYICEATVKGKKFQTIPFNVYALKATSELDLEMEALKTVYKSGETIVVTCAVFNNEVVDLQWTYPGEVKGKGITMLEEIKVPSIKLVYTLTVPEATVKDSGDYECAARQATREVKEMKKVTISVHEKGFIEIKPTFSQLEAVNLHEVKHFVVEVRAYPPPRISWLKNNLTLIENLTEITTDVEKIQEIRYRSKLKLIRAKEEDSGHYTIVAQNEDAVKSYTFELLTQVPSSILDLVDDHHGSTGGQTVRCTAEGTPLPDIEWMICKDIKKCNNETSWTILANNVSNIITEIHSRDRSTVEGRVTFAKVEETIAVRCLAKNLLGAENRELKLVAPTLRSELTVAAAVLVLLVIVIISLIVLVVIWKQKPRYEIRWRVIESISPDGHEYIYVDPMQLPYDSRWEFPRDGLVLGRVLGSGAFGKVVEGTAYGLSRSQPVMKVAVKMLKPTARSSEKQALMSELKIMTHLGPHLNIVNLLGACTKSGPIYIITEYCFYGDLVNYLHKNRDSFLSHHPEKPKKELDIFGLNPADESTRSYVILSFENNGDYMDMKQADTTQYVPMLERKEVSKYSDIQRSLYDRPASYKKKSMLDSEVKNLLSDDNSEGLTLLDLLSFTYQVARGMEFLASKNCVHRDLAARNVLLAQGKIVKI

normal human fibroblasts [3] = experiment: ROS production in normal human fibroblasts (DCFH-DA fluorescence); type: cell-based; conditions: 10 micrograms/ml, 15 minutes incubation
Text: as §1

PDGFR alpha [4] = target: T1, PDGFR alpha; experiment: immunoprecipitation and immunoblotting of PDGFR alpha from human fibroblast extracts; type: binding; parameters: 100 micrograms of total protein from human fibroblast extract; endogenous in cells; host or cells: normal human (skin) fibroblasts, total cell extract; conditions: normal human fibroblast extracts; 10 micrograms/ml
Method: Immunoprecipitating antibodies were individually incubated for 4 hours at 4° C. with an aliquot of 100 micrograms of total protein from human fibroblast extract. The reaction mixture was adjusted to a final volume of 500 microliters with assay buffer (PBS, 1% Nonidet P-40, 0.5% sodium deoxycholate, 1 mM PMSF). Rabbit anti-PDGFR alpha antibody and rabbit IgG (Santa Cruz), IgG purified from EBV-transformed B cell culture supernatants and rHumaab were used at 10 micrograms/ml, total IgG purified from serum of SSc patients and healthy subjects at 200 micrograms/ml. Then, 20 microliters agarose-Protein A/G (Santa Cruz) were added to the antibody-cell extract mixture and incubated overnight under rotation at 4° C. After centrifugation and extensive washing, immunoprecipitates were suspended in 20 microliters of loading buffer (150 mM Tris-HCl, pH 6.8/6% SDS/0.3% bromophenol blue/30% glycerol) and heated to 100° C. for 10 minutes prior to immunoblotting with a commercial rabbit anti-PDGFR alpha antibody (Santa Cruz).
Target sequence in this assay (P16234 24-1089): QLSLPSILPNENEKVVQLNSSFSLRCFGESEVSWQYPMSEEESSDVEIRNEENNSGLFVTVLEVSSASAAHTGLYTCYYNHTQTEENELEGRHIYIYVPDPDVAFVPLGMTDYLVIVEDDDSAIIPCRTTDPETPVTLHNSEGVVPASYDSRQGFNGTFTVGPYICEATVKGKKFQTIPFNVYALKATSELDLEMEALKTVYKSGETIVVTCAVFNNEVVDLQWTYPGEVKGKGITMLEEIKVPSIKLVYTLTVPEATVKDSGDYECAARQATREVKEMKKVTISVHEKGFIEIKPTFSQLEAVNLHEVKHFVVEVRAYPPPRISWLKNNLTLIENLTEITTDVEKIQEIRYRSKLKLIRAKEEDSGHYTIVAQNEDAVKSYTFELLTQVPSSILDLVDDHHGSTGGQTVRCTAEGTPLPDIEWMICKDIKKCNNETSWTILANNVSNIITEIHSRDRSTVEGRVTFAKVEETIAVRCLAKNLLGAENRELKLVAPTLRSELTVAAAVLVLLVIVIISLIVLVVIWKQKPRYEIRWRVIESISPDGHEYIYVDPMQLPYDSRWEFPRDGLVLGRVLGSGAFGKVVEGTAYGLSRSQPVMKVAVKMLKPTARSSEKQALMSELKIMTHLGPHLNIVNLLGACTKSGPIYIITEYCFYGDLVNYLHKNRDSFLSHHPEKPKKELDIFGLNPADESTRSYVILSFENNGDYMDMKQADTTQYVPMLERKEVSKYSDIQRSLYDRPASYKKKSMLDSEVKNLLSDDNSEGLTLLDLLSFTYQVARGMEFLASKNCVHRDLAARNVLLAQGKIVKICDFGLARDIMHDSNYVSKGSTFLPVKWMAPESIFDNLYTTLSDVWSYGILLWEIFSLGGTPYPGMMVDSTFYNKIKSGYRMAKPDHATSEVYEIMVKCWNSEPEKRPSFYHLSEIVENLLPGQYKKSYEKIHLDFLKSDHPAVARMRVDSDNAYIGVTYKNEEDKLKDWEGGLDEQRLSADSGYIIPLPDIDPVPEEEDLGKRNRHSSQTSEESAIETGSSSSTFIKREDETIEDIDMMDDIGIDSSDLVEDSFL

normal human fibroblasts [5] = experiment: ERK phosphorylation (p-ERK immunoblot) in normal human fibroblasts; type: cell-based; conditions: 10 micrograms/ml, 15 minutes incubation
Text: as §1

PDGFR alpha [6] = target: T1, PDGFR alpha; experiment: competitive binding on optical biosensor; parameters: cDNA encoding aminoacids 1-834 of human PDGFR alpha; made in house; conditions: immobilized His-tagged PDGFR alpha saturated with molar excess of PDGF-BB
Method: To draw a map of the PDGFR alpha epitopes recognized by the rHumaab, competitive binding experiments were performed on the optical biosensor platform, where the surface of immobilized HIS-tagged PDGFR alpha was saturated with PDGF-BB prior to the addition of each rHumaab.
Binding assays were performed on a IAsys plus biosensor. The carboxylate surface was equilibrated with PBS buffer, and activated by addition of an equimolar mixture of N-hydroxysuccinimide and N-ethyl-N-(dimethylaminopropyl) carbodiimide hydrochloride following the standard procedure (Davies, R J et al. Academic Press: San Diego, 1994).
Next, His-tagged PDGFR alpha (200 micrograms/mL) was incubated over the surface for 20 min, and free carboxylic sites on the sensor surface were deactivated by injection of 1M ethanolamine, pH 8.5. Finally, the surface was re-equilibrated with PBS. rHumaab and PDGF-BB were added at different concentrations, and association kinetics were followed up to equilibrium, whereas dissociation steps and surface regeneration were performed by addition of fresh buffer, each time assessing the baseline recovery prior to any new addition of ligand. Kinetic and equilibrium parameters were derived from global fit of raw data both to mono- and bi-exponential models (Cuccioloni M et al. J Lipid Res 2011; 52 (5): 897-907).
Target sequence in this assay (P16234 24-834): as the sequence (P16234 24-834) above

kass (association rate constant) (PDGFR alpha [2]): 3e+07 M⁻¹ s⁻¹
Molecule: PDGF-BB: human PDGF-BB, natural binding partner (physiological ligand) of PDGFR alpha [reference compound]
duration of collagen gene stimulation (normal human fibroblasts [1]): up to 6 hours

kdiss (dissociation rate constant) (PDGFR alpha [2]): 0.003 s⁻¹ | immunoprecipitation of PDGFR alpha (PDGFR alpha [4]): specifically bound
B1: Vlambda16F4: recombinant human monoclonal IgG1, VH PAM paired with Vlambda16F4 VL (SEQ ID No. 7) (antibody, V domains shown)
VH: GLVKPLETLSLTCSVSGGSVSDGSYFWNWIRQPPGKGLEWIGYAYSRGTTNYSPSLKGRITISVDKSKNQISLKLTSVTPADTAVYYCARDSFEIWGQGTMVTV
VL: QSALTQPASVSGSPGQSITISCTGTSSDVGGYNYVSWYQHHPGKAPKLMIYEVSHRPSGVSNRFSGSKSGNTASLTISGLQAEDEADYYCSSYTSSSHVVFGGGTKLTVL
ROS production (normal human fibroblasts [3]): induced | ERK phosphorylation (p-ERK) (normal human fibroblasts [5]): increased

binding to PDGFR alpha pre-saturated with PDGF-BB (PDGFR alpha [6]): bound | kdiss (dissociation rate constant) (PDGFR alpha [2]): 0.035 s⁻¹ | immunoprecipitation of PDGFR alpha (PDGFR alpha [4]): specifically bound
B2: Vk13B8: recombinant human monoclonal IgG1, VH PAM (SEQ ID No. 3) paired with Vk13B8 VL (SEQ ID No. 4); non-agonistic anti-PDGFR alpha (antibody, listed as Homo sapiens, V domains shown)
VH: B1 VH
VL: DIQMTQSPSSLSASVGDRVTITCRASQGISNYLAWFQQKPGKAPKSLIYAASSLQSGVPSKFSGSGSGTDFTLTISSLQPEDFATYYCQQYNSFPYTFGQGTKLEIK
